Assays:
Assay in all cases: immobilized peptide pulldown, SILAC LC-MS/MS
Conditions in all cases: reference: unphosphorylated peptide; sites Y595
SLP-76 = SLP-76 (UniProt Q13094)
PLCγ1 = PLCγ1 (UniProt P19174)
Nck2 = Nck2 (UniProt O43639)
Nck1 = Nck1 (UniProt P16333)

fold change (SLP-76): stronger
fold change (PLCγ1): stronger
fold change (Nck2): stronger
fold change (Nck1): stronger
Substance: ADAP 586-600 (from UniProt O15117) pY595 peptide

Reference: publication PMC2908683
